Measurements taken from the nanobody polyreactivity screen of Harvey et al. (2022).

Assay: yeast display, Sf9 membrane polyspecificity reagent, FACS + sequencing; frameworks hold sequencing errors
Procedure, shortened: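 Using colony PCR, genes from sorted yeast display clones were amplified, then sequenced on MiSeq at 2 × 250 and filtered by CDR length. The clones had been stained with 10% biotinylated, detergent-solubilized Sf9 membrane reagent for 1 hour at 4 °C and sorted by FACS into low and high (top ~1%) gates on anti-HA and streptavidin fluorescence. Polyreactivity labels come from the gate of origin.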

Sequence | polyreactivity (PSR sort gate)
QVQLVESGGGLVQAGGSLRLSCAASGSTFRKYAMGWYRQAPGKERELVAAISKSGGSTYYADSVKGRFTISRDNAKNTVYLQMNSLKPEDTAVYYCNARKRTKLSYPKFDYWGQGTQVTVSS | high polyreactivity
QVQLVESGVGLVQAGGSLRLSCAASGIILYRYSMGWYRQAPGKEREFGAAISRTGASTYYADSVKGRFTISRDNAKKSVYLQMNSRKPEDTAVYYCDVKALDQARYGKSGYWGQGTQVSVSS | high polyreactivity
PVQLVESWGGLDQAGGSLRLICAPSGSIFSVYAMGWYRQAPGKERELVAAISWSGGSTYYADSVKGRFTISRDNAKNTVYLQLNSLKPEDTAVYYCNAKHLPRHRDYWGQGTQVTVSS | low polyreactivity
LVQLVESGGGLVQAGGSLRLSCAASGNTFVSNAMGWYRQAPGKERELVAAIDSGGSTNYADSVKGRFTISRDNAKNTVYLQMNSLKPDDTAVYYCTRTSVYYYYWGQGTQVTVSS | low polyreactivity
QVQLVESGGGLVQAGGSLRLSCAASGRNFKFYAMGWYRQAPGKERELVAGINTDGGSTYYADSVKGRFTISRDNAKNTVYLQMNSLKPEDTAVYYCNAYYYKPARKYARHYDYWGQGTQVTVSS | low polyreactivity
QVQLVESGGGLVQAGGSLRLSCAASGIIFSYYVMGWYRQAPGKERELVAAISRSGAITYYADSVKGRFTISRDNAKNTVYLQMNSLKPEDTSVYYCAAELVPYSYHLRLDYWGQGTQVTVSS | high polyreactivity
QVQLVESGGGLVQAGGSLRLSCAASGSIFGAYAMGWYRQAPGKERELVAAITWRGGSTYYADSVKGRFTISRDNAKNTVYLQMNSLNPEDTAVYYCATDTWGSYYDDDDYWGQGTEVTVSS | high polyreactivity
QVQLQESGGGLVQAGGSLRLSCAASGTIFDKDDMGWYRQAPGKEREFVAGIDRGGTTNCAGSVKGRFTISRDNAKNTVYLQMISLKPEDTEVYYCAAYYPDIYPFIYRGQGTQVTVSS | high polyreactivity
QVQLVESGGGLVQAGGSLRLSCAATGYIIQHYAMGWYRQSAGKERELVAAITSGGSTTYADSVKWRFTISRDNAKNTVFLQMNSLKPEDSAVYYCKALRRDRYTRKGYEYWGQGTQVTVSS | high polyreactivity
QFHLVETGGGLVQAGGSLRLSCAASGSTFSDYAMGSYRQAPGKERELVAGITETGTTTYYADSVNGRFTISRDNAKNTDYLQINSLKPEDTAVYYCAAFLVTYYYGTGYYSYDYWGQGTQVTVSS | low polyreactivity
QDQHVESGGGLVQAGGSLRISSAASGSIYFYNAMGWYRQAPGQERELVAAITTRGGSTYYADSVKGRFTISRDNAKNTVYLQMNSLKPEDTAVYYCARSSRGKLDYWGQGTQVTVSS | low polyreactivity
QLQLVESGGGLVQAGGSLRLSCAASGRIYLYAMGWSRQAPGKERELVAAITTRAGRTYYADSVKGRFTISRDNAKNTVYFQMNSLKPEDTAVYYCAADGTRYPAYGYWGQGTQVTVSS | low polyreactivity
QVQLVESGGGLVPAGGSLRLSCAASGRTFRFNAMGWYRQAPGKERELVAAITKSSGSTDYADSVKGRFTISRDNAKNTVYLQMNSLKPEDSAVYYCAVRIFVPYYSDWSFPTQYNYWGQGTQLTVSS | high polyreactivity
QVQLVESGGGLVQARGSLRLSWAASGSTFQVYAMGWSRPAPGKERELVAAINYSGGSTYYADSVKGRFTISRDNAKNTVYVLMNSLKPEDTAVYYCAVKLRSRAGTSYGYWGQGTQVTVSS | high polyreactivity
QFQLVESGGGLVQAGGSLRLSCAASGRIFYRYAMGWYIQAPGKERELVAAITSGTSTNYADSVKGRFTISRDNAKNTVYVQMNSLKPEDTAVYYCAKRYYWKYAEYDYWGQGTLVTVSS | high polyreactivity
QVQLVESGGGLVQAGGSLRLSCAASGSIFWYNAMGWYRQAPGKERELVAAIRWRGGSTYYADSVKGRFTISRDNAKNTVYLQMNSLKPEDTAVYYCAAQVYVSQLYTSYYYWGQGTQVTVSS | high polyreactivity

Sequence | polyreactivity (PSR sort gate)
QVQLVESGGGLVQAGGSLRLSCAASGSTFDPYGMGWYRQAPGKERELVAAITSSGRTNYADSVKGRFTISRDNAKNTVYFQMNSLKPEDTAVYYCATRKERYFYRCYEYWGQGTQVTVSS | low polyreactivity
QVQLVESGGGLVQAGGSLRLSCAASGFIFPYYAMGWYRQAPGKERELVAAITSSGGRTYYADSVKGRFTISRDNAKNTVYFQMNSLKPEDTAVYYCAAYYLTPTDVEYDYWGQGTQVTVSS | high polyreactivity
QVQLVDSGGGLVQAGGSLRLICAASGLIFYKYAMGWYRQAPGKERELVASISTGGGSTYYADSVKGRFTISRDNAKNTVYLQMNSLQPEDTAVYYCAARWWRRFRGSHSLYDYWGQGTEVTVSS | high polyreactivity
QVQLVESGGGLVQAGGSLRLSCAASGSIFSINTMGWYRQAPGKERELVAAITRSGSGTYYADSVKGRFTISRDNAKNTVYLQMNSLKPEDTAVYYCAKSTAVKPYAYRESGFIYDYWGQGTQVTVSS | low polyreactivity
QVQLVESGGGLVQAGGSLRLSCAASGRTIRVNAMGWYRQAPRKERELVAAISRSTGDTYYADSVKGRFTNSRDNAKNTVYLQMHSLKPEDTAVYYCAADVPGGEGDYAYEYWGQGTQVNVSS | low polyreactivity
QVQLVESVGGLVQAGVSLPLSCAASGFTFSYNAMGWYIQAPGKERELVATIRSSGGSTNYADSVKGRFTISRDNAKNTVYVQMNSLKPEDTAVYYCAADFSYYSTYDYWGQGTQVTVSS | low polyreactivity
QVQLVESGGGLVQAGGRLRLSCAASGLIFYDNMGWYRQPPGKERELVAAITWSGGSTYYADSVKGRFTISRDNAKNTVYLQMNSLKPEDTAVSYCNADLDSGYGSYDYWGQGTQVTVSS | low polyreactivity
QVQLVESGGGLDQAGGSLRLSCAASGSTFYYYAMGWYRQAPGKERELVATISSGSSTNYADSVKGRFTISRDNAKNTVYLQMNCLKPEDTAVYYCAADRWYITLSIDATISYDYWGQGTQVTVSS | low polyreactivity
QVQLVESGGGIVQAGGSLRLSCDASGRIIGYYAMGWYRQAPGKERELVAAISRSGARTYYADSVKGRFTISRDNAKNTVYLQMNSLKPEDTAVYYCAAGPAPGHDSWGQGTQVTVSS | high polyreactivity
QVQLVESGGGLVQAGGSLRLSCAASGNIFRGYTMGWYRQAPGKERELVATITWNGVSTFYADSVKGRFTISRDNAKNTVYLEMNSLKPEDTAVYYCAAYYPSHDYSGFWSDTYEYWGQGTQVTVSS | low polyreactivity
QVQLVESGGGLVQAGGSLRLSCAASGFNFAFYDMGWYRQAPGKERELVAAISWGGSTYYADSVKGRFTISRDNAKNTVYLQMNRLKPEDTAVYYCAARLSRSYRYGYWGQGTQVTVSS | high polyreactivity
QVQLVESGGGLVQAGGSLRLSCAASGSILLINAMGWYRQAPGKERELVAAIRTGGSTYYADSVKGRFTISRDNAKNTVYLQMNSLKPEDTAVYYCAVRTGRRWWKFDYWGQGTQVTVSS | low polyreactivity
QVQLVESGGGLVQAGGSLRLSCAASGSILKGYTMGWYRQAPGKERELVAAITQTDNSTNYADSVKGRFTISRDNAKNTVYLQMNSLKPEDTAVYYCAASQLEFRRAFYYWGQGTQVTVSS | low polyreactivity
QVQLVESGGGLVQAGGSLRLSCAASGITFAKYAMGWYRQAPGKERELVAAISTSGGSTYYADSVKGRFTISRDNAKNTVYLQMNSLKPEDTAVYYCNVDTYIWYYLRYYNYWGQGTQVTVSS | high polyreactivity
QVQLVESGGGLVQAGGSLRLSCAASGSTFRYYAMGWYRQAPGKVRELVAAITSSGTSTYYADSVTGRFTISRDNAKNTVYLQKNSLKPEDTAVYYCAAPPVYKWVSSRYDYWGQGTQVTVSS | low polyreactivity
